Laboratory results: US20260116996A1 (REGENTS OF THE UNIVERSITY OF MINNESOTA, published 2026)

T1: human serpinB11 (human, UniProt Q96P15 1-392)
T1 construct: Luminex antigen captured from a 293 cell lysate; not shown: V5-His tag of the pcDNA3.1 Directional V5-His-TOPO vector
T1 sequence (looked up): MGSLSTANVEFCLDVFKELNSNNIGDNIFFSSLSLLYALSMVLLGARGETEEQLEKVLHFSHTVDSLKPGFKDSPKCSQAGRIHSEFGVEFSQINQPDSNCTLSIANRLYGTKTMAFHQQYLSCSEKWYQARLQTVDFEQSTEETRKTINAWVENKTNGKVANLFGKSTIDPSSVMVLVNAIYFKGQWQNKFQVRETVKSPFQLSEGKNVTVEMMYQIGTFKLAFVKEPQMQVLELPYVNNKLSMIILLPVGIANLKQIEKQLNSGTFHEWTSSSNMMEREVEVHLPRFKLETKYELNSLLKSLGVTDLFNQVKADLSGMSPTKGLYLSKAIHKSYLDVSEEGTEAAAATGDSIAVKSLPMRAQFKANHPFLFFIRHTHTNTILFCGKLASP

T2: human serpinB5 (human, UniProt P36952 1-375)
T2 construct: Luminex antigen captured from a 293 cell lysate; not shown: V5-His tag of the pcDNA3.1 Directional V5-His-TOPO vector
T2 sequence (looked up): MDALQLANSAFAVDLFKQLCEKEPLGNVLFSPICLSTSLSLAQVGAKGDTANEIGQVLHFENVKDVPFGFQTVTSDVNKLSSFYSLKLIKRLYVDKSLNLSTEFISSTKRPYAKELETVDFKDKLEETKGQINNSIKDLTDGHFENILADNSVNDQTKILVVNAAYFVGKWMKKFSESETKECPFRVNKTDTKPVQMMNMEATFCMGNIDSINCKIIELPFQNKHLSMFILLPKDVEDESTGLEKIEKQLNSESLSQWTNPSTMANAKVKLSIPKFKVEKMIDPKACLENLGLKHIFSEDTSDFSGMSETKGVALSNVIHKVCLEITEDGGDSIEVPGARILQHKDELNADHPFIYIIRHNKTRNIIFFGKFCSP

T3: human serpinB1 (human, UniProt P30740 1-379)
T3 construct: Luminex antigen captured from a 293 cell lysate; not shown: V5-His tag of the pcDNA3.1 Directional V5-His-TOPO vector
T3 sequence (looked up): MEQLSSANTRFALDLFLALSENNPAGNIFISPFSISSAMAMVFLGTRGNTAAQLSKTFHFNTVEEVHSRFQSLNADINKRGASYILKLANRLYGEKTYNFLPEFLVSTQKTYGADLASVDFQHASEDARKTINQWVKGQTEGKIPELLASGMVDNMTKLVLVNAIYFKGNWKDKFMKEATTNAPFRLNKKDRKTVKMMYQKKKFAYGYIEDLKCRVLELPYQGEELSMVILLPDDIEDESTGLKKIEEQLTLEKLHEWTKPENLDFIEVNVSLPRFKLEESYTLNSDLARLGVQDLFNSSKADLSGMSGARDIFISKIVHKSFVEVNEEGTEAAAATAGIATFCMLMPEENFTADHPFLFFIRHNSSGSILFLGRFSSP

T4: recombinant human serpinB13 (human, UniProt Q9UIV8 1-391)
T4 construct: The baculovirus-made protein (GenScript) was used for panning, ELISA and the cathepsin L assay; In the Luminex assay human serpinB13 was V5-His tagged and came from 293 cell lysates; also called rhB13
T4 sequence (looked up): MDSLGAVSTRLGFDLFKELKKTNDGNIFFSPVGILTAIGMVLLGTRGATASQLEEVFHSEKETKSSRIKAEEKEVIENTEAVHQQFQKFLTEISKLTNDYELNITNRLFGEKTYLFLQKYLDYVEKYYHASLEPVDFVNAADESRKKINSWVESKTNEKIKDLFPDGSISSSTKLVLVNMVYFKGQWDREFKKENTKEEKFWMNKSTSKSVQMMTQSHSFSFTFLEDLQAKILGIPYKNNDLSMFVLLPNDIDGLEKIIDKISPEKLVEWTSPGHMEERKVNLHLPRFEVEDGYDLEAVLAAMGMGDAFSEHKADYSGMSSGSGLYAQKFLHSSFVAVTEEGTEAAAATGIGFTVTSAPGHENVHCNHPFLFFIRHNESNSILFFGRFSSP

T5: human serpinB9 (human, UniProt P50453 1-376)
T5 construct: Luminex antigen captured from a 293 cell lysate; not shown: V5-His tag of the pcDNA3.1 Directional V5-His-TOPO vector
T5 sequence (looked up): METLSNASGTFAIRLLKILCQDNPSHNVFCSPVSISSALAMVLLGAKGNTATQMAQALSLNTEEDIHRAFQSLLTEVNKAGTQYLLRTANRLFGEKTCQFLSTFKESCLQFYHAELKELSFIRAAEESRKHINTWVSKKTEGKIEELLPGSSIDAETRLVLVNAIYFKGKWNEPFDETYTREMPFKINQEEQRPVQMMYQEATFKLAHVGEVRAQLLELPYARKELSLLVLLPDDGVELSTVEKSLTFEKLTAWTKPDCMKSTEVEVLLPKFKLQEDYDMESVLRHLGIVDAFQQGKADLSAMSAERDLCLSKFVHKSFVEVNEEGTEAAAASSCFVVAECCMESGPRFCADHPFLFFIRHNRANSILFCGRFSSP

B1: recombinant fully human anti-serpinB13 antibody Clone 1 (antibody, human IgG1, kappa, V domains shown)
VH: QVQLQESGGGVVQPGRSLRLSCAASGFTFSSYGMHWVRQAPGKGLEWVAVISYDGSNKYYADSVKGRFTISRDNSKNTLYLQMNSLRAEDTAVYYCARDLGAVIAVAGTSTPYNWFDPWGQGTLVTVSS
VL: DVVMTQSPLSLPVTPGEPASISCRSRQSLLHSNGHNYLGWYLQKPGQSPQLLIYLASIRASGIPDRFSGSGSGTDFTLKISRVEAEDVGVYYCMQALQTPYTFGQGTKLEIKR
notes: also called mAb1; mAbs1
B2: recombinant fully human anti-serpinB13 antibody Clone 2 (antibody, human IgG1, kappa, V domains shown)
VH: QMQLVQSGGGVVRPGGSLRLSCAASGFTFDDYGMSWVRQAPGKGLEWVSGINWNGGSTGYADSVKGRFTISRDNAKNSLYLQMNSLRAEDTALYYCARESSMTTVTTYLLREVGVGLDFDYWGQGTLVTVSS
VL: ETTLTQSPGTLSLSPGERATLSCRASQTVSGSYLAWYQQKPGQPPRLLIYGASSRATGIPDRFSGSGSGTDFTLTISRLEPEDFAVYYCQDYGSSRTFGQGTKVELKR
notes: also called mAb2; CLONE2-H(m1) / CLONE2-L(m1)
B3: recombinant fully human anti-serpinB13 antibody Clone 3 (antibody, human IgG1, kappa, V domains shown)
VH: QVQLQQWGAGLLKPSETLSLTCAVYGGSFSGYYWSWIRQPPGKGLEWIGEINHSGSTNYNPSLKSRVTISVDTSKNQFSLKLSSVTAADTAVYYCARRYCSGGSCYLVGTGSELDYWGQGTLVTVSS
VL: DIQMTQSPSTLSASVGDRVTITCRASQSISSWLAWYQQKPGKAPKLLIYKASSLEIGVPSRFSGSGYGTEFTLTISSLQPDDFATYYCLQYSTHSTFGQGTRVEIKR
notes: also called mAb3; CLONE3-H(m1) / CLONE3-L(m1)

Target: T1, human serpinB11
Assay: Luminex bead assay, beads coated with human serpinB11, background (Gfp and Scgn beads) subtracted
Protocol: (§1) The latter was determined as the average antibody binding to Luminex beads coated with Gfp and Scgn control antigens. Similar data were obtained for antigen binding of Fab fragments of these antibodies (data not shown).
(§2) Luminex assay. Luminex-based technology was used to measure serpinB13 AA in human samples. Initially, the Luminex beads were precoated with serpinB13, Gfp and Scgn, using precleared lysates of 293 cells that had been transfected with individual cDNAs. Biotinylated mouse anti-human K and 2 chain mAbs (BD Biosciences) (dilution 1:300) and streptavidin (Invitrogen) (dilution 1:200) were used as secondary reagents to measure human serum binding activity to individual antigens. The data were expressed as fluorescence intensity (F.I.) due to serum binding activity in the presence of beads precoated with serpinB13 and after subtracting the average F.I. due to serum binding activity in the presence of beads precoated with control proteins, Gfp and Scgn (e.g. F.I.^B13-[F.I.^GFP+F.I.^Segn]/2). The samples were evaluated based on the level of F.I. and the degree of inhibition of binding to serpin-B13 coated beads with soluble serpinB13 (2.5 μg/mL), compared with the bovine serum albumin (BSA). […] All samples were run blind on three independent occasions. Subjects with serum samples that produced a positive results three times were considered positive. Subjects with serum samples that produced a negative result on at least one occasion were considered negative.
(§3) To determine whether anti-serpin activity is specific, binding of three human recombinant antibodies to serpinB13 was examined for potential cross-reactivity with other clade B serpins. Binding to the beads conjugated with Gfp and Scgn was used to subtract the background and the assay was developed using the same reagents as those described above for measuring serpinB13 AA in serum samples.

| Binder | binding result |
| --- | --- |
| B1 | no binding (tested: 1.0 µg/mL) |
| B2 | no binding (tested: 1.0 µg/mL) |
| B3 | no binding (tested: 1.0 µg/mL) |

Target: T2, human serpinB5
Assay: Luminex bead assay, beads coated with human serpinB5, background (Gfp and Scgn beads) subtracted
Protocol: as §1, §2, §3

| Binder | binding result |
| --- | --- |
| B1 | no binding (tested: 1.0 µg/mL) |
| B2 | no binding (tested: 1.0 µg/mL) |
| B3 | no binding (tested: 1.0 µg/mL) |

Target: T3, human serpinB1
Assay: Luminex bead assay, beads coated with human serpinB1, background (Gfp and Scgn beads) subtracted
Protocol: as §1, §2, §3

| Binder | binding result |
| --- | --- |
| B1 | no binding (tested: 1.0 µg/mL) |
| B2 | no binding (tested: 1.0 µg/mL) |
| B3 | no binding (tested: 1.0 µg/mL) |

Target: T4, recombinant human serpinB13
Assay: Luminex bead assay, beads coated with human serpinB13, antibody at 1.0 µg/mL, background (mean of Gfp and Scgn beads) subtracted
Protocol: as §1, §2, §3

| Binder | binding result |
| --- | --- |
| B1 | binds |
| B2 | binds |
| B3 | binds |

Target: T5, human serpinB9
Assay: Luminex bead assay, beads coated with human serpinB9, background (Gfp and Scgn beads) subtracted
Protocol: as §1, §2, §3

| Binder | binding result |
| --- | --- |
| B1 | no binding (tested: 1.0 µg/mL) |
| B2 | no binding (tested: 1.0 µg/mL) |
| B3 | no binding (tested: 1.0 µg/mL) |
